Reference: patent US20220031857A1

Experiments:
[1] = molecular target: recombinant mouse TfR1 (transferrin receptor 1) (mouse) (UniProt Q62351); experiment: Octet, mouse TfR1 on anti-His biosensors, analyte 10 nM, PBS pH 7.2
[2] = molecular target: recombinant mouse TfR1 (transferrin receptor 1) (mouse) (UniProt Q62351); experiment: Octet, mouse TfR1 immobilised on biosensors; row buffer (no first antibody), column 8D3
[3] = molecular target: recombinant mouse TfR1 (transferrin receptor 1) (mouse) (UniProt Q62351); experiment: Octet, mouse TfR1 on anti-His biosensors, analyte 10 nM, PBS pH 6.0

Sequence of recombinant mouse TfR1 (transferrin receptor 1) (mouse) (Q62351 89-763 limits assumed): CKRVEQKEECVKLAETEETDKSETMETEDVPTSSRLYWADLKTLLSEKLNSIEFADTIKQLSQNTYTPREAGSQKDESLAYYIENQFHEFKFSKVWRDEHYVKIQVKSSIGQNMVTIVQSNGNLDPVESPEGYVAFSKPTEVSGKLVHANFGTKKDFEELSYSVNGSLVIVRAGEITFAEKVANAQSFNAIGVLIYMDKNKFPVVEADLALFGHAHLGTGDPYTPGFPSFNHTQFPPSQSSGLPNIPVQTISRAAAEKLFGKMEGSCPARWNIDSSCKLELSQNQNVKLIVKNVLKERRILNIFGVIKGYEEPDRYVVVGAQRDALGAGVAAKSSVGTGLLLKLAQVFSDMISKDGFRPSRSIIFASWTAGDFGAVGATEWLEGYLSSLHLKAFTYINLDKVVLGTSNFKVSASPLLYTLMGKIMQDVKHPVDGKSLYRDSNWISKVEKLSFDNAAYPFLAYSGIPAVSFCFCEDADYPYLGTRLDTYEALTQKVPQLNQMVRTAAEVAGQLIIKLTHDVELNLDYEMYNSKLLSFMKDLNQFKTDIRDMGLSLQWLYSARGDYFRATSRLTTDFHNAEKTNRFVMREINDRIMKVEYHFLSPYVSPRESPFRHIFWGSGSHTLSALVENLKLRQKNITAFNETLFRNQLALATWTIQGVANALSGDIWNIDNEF

Kd [1]: 221 pM
koff [1]: 0.000131 s⁻¹
kon [1]: 591000 M⁻¹ s⁻¹
Octet signal as second antibody after buffer [2]: 0.33
Kd [3]: 247 pM
koff [3]: 0.000126 s⁻¹
kon [3]: 511000 M⁻¹ s⁻¹
B1: 8D3 monoclonal antibody to mouse TfR (antibody, from another filing, V domains shown)
VH: EVQLVESGGGLVQPGNSLTLSCVASGFTFSNYGMHWIRQAPKKGLEWIAMIYYDSSKMNYADTVKGRFTISRDNSKNTLYLEMNSLRSEDTAMYYCAVPTSHYVVDVWGQGVSVTVSS
VL: DIQMTQSPASLSASLEEIVTITCQASQDIGNWLAWYQQKPGKSPQLLIYGATSLADGVPSRFSGSRSGTQFSLKISRVQVEDIGIYYCLQAYNTPWTFGGGTKLELK
